Key:
EGFR on the cell surface = molecular target: T1, EGFR on the cell surface (human, UniProt P00533 25-1210); assay: flow cytometry on cells carrying the target, antibody or DVD-Ig at 2 ug/mL
T1 construct: whole, on cells; also called epidermal growth factor receptor
Method: (§1) Binding of monoclonal antibodies to the surface of human tumor cell fines was assessed by flow cytometry. For example, stable cell lines overexpressing a cell-surface antigen of interest or human tumor cell lines were harvested from tissue culture flasks and resuspended in phosphate buffered saline (PBS) containing 5% fetal bovine serum (PBS/FBS). Prior to staining, human tumor cells were incubated on ice with (100 μl) human IgG at 5 μg/ml in PBS/FCS. 1-5×10⁵ cells were incubated with antibody or DVD-Ig (2 μg/mL) in PBS/FBS for 30-60 minutes on ice. […] After 30 minutes incubation on ice, cells were washed twice and resuspended in PBS/PBS. Fluorescence was measured using a Becton Dickinson FACSCalibur (Becton Dickinson, San Jose, Calif.).
(§2) The geometric mean is the n root of the multiplication product of n fluorescent signals (a1×a2×a3 . . . an). With log-transformed data the geometric mean is used to normalize the weighting of the data distribution.

[1] = molecular target: T2, Recombinant Human VEGF 165 (human, UniProt P15692-4 27-191); assay: SPR (BIACORE), N-terminal variable domain to target antigen
T2 construct: Bought reagent used in the Biacore analyses; also called vascular endothelial growth factor
T2 sequence (P15692 other isoform, or with tags, fused parts or gaps limits assumed): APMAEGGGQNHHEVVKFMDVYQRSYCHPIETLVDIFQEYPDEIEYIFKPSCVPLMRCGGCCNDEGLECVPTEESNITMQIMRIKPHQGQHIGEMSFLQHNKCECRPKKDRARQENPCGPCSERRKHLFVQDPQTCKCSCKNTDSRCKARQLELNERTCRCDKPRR
Method: (§3) The BIACORE assay (Biacore, Inc, Piscataway, N.J.) determines the affinity of antibodies or DVD-Ig with kinetic measurements of on-rate and off-rate constants. Binding of antibodies or DVD-Ig to a target antigen (for example, a purified recombinant target antigen) was determined by surface plasmon resonance-based measurements with a Biacore® 1000 or 3000 instrument (Biacore® AB. Uppsala, Sweden) using running HBS-EP (10 mM HEPES [pH 7.4], 150 mM NaCl, 3 mM EDTA, and 0.005% surfactant P20) at 25° C. All chemicals were obtained from Biacore® AB (Uppsala, Sweden) or otherwise from a different source as described in the text.
(§4) For example, approximately 5000 RU of goat anti-mouse IgG, (Fcγ), fragment specific polyclonal antibody (Pierce Biotechnology Inc, Rockford, Ill.) diluted in 10 mM sodium acetate (pH 4.5) is directly immobilized across a CMS research grade biosensor chip using a standard amine coupling kit according to manufacturer's instructions and procedures at 25 μg/ml. Unreacted moieties on the biosensor surface are blocked with ethanolamine. Modified carboxymethyl dextran surface in flowcell 2 and 4 is used as a reaction surface. Unmodified carboxymethyl dextran without goat anti-mouse. IgG in flow cell 1 and 3 is used as the reference surface. For kinetic analysis, rate equations derived from the 1:1 Langmuir binding model are fitted simultaneously to association and dissociation phases of all eight injections (using global fit analysis) with the use of Biaevaluation 4.0.1 software. Purified antibodies or DVD-Ig are diluted in HEPES-buffered saline for capture across goat anti-mouse IgG specific reaction surfaces. Antibodies or DVD-Ig, to be captured as a ligand (25 μg/ml) are injected over reaction matrices at a flow rate of 5 μl/min. The association and dissociation rate constants, kₒₙ(M⁻¹s⁻¹) and koff (s⁻¹) are determined under a continuous flow rate of 25 μl/min. Rate constants are derived by making kinetic binding measurements at different antigen concentrations ranging from 10-200 nM. The equilibrium dissociation constant (M) of the reaction between antibodies or DVD-Igs and the target antigen is then calculated from the kinetic rate constants by the following formula: KD=koff/Kₒₙ. Binding is recorded as a function of time and kinetic rate constants are calculated.

[2] = molecular target: T3, Recombinant Human MSP R/RON (human, UniProt Q04912 25-571, limits assumed); assay: as above
T3 construct: Bought reagent used in the Biacore analyses; also called macrophage stimulating protein receptor tyrosine kinase
Method: as §3, §4

ErbB3 = molecular target: T4, ErbB3 (UniProt P21860 20-643, limits assumed); assay: as above
T4 construct: also called v-erb-b2 avian erythroblastic leukemia viral oncogene homolog 3
Method: as §3, §4

NRP1 on the cell surface = molecular target: T5, NRP1 on the cell surface (human, UniProt O14786 22-923); assay: flow cytometry on cells carrying the target, antibody or DVD-Ig at 2 ug/mL
T5 construct: whole, on cells; also called neuropilin 1
Method: as §1, §2

Recombinant Human DLL4 = molecular target: T6, Recombinant Human DLL4 (human, UniProt Q9NR61 27-524); assay: SPR (BIACORE), N-terminal variable domain to target antigen
T6 construct: Bought reagent used in the Biacore analyses; also called Delta-like ligand 4
T6 sequence (Q9NR61 27-524 limits assumed): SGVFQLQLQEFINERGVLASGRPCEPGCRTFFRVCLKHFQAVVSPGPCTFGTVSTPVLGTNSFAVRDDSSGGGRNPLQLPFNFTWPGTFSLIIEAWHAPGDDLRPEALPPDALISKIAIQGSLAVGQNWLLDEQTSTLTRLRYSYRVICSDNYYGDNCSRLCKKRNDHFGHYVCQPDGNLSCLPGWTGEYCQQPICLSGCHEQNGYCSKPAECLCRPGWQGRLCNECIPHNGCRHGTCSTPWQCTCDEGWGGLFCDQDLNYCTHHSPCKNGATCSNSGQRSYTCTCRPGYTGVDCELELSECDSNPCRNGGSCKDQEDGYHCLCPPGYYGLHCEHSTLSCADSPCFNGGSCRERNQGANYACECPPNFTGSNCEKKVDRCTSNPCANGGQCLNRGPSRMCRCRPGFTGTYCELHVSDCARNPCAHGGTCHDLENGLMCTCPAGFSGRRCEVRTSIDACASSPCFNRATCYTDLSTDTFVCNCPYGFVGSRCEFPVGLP
Method: as §3, §4

Recombinant Human PIGF = molecular target: T7, Recombinant Human PIGF (human, UniProt P49763-2 21-149, limits assumed); assay: as above
T7 construct: Bought reagent used in the Biacore analyses; also called PlGF; placental growth factor
T7 sequence (looked up): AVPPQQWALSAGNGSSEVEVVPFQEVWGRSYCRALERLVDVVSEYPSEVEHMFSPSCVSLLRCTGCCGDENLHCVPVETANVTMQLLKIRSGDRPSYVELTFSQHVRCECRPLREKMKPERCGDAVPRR
Method: as §3, §4

[3] = molecular target: T8, Recombinant Human Neuropilin-1 (human, UniProt O14786-2 22-644, limits assumed); assay: as above
T8 construct: Bought reagent used in the Biacore analyses; also called NRP1; NRP-1
Method: as §3, §4

B1: DVD1875 (bispecific antibody, human IgG1, kappa)
heavy: not shown
light: DIQMTQSPSSLSASVGDRVTITCQASQDISNYLNWYQQKPGKAPKLLIYDASNLETGVPSRFSGSGSGTDFTFTISSLQPEDIATYFCQHFDHLPLAFGGGTKVEIKRTVAAPQIVLIQSPAIMSASPGEKVTMTCSASSSVSYMYWYQQKPGSSPRLLIYDTSNLASGVPVRFSGSGSGTSYSLTISRMEAEDAATYYCQQWSGYPYTFGGGTKLEIKRTVAAPSVFIFPPSDEQLKSGTASVVCLLNNFYPREAKVQWKVDNALQSGNSQESVTEQDSKDSTYSLSSTLTLSKADYEKHKVYACEVTHQGLSSPVTKSFNRGEC
notes: also called DVD1875H; DVD1875L
N-Terminal VD GEO MEAN (FACS geometric mean) (EGFR on the cell surface): 717

B2: DVD1865 (bispecific antibody, human IgG1, kappa)
heavy: not shown
light: DIQMTQSPSSLSASVGDRVTITCSASQDISNYLNWYQQKPGKAPKVLIYFTSSLHSGVPSRFSGSGSGTDFTLTISSLQPEDFATYYCQQYSTVPWTFGQGTKVEIKRTVAAPQIVLIQSPAIMSASPGEKVTMTCSASSSVSYMYWYQQKPGSSPRLLIYDTSNLASGVPVRFSGSGSGTSYSLTISRMEAEDAATYYCQQWSGYPYTFGGGTKLEIKRTVAAPSVFIFPPSDEQLKSGTASVVCLLNNFYPREAKVQWKVDNALQSGNSQESVTEQDSKDSTYSLSSTLTLSKADYEKHKVYACEVTHQGLSSPVTKSFNRGEC
notes: also called DVD1865H; DVD1865L
Kd [1]: < 0.002 nM | koff [1]: < 1e-06 s⁻¹ | kon [1]: 640000 M⁻¹ s⁻¹

B3: DVD1853 (bispecific antibody, human IgG1, kappa)
heavy: not shown
light: DVVMTQSPLSLPVTPGEPASISCRSSQSLLHSNGFNYVDWYLQKPGQSPHLLIYFGSYRASGVPDRFSGSGSGTDFTLKISRVEAEDVGVYYCMQALQTPPWTFGQGTKVEIRRTVAAPQIVLIQSPAIMSASPGEKVTMTCSASSSVSYMYWYQQKPGSSPRLLIYDTSNLASGVPVRFSGSGSGTSYSLTISRMEAEDAATYYCQQWSGYPYTFGGGTKLEIKRTVAAPSVFIFPPSDEQLKSGTASVVCLLNNFYPREAKVQWKVDNALQSGNSQESVTEQDSKDSTYSLSSTLTLSKADYEKHKVYACEVTHQGLSSPVTKSFNRGEC
notes: also called DVD1853H; DVD1853L
Kd [2]: 15 nM | koff [2]: 0.00085 s⁻¹ | kon [2]: 58000 M⁻¹ s⁻¹

B4: DVD1855 (bispecific antibody, human IgG1, kappa)
heavy: not shown
light: DIEMTQSPDSLAVSLGERATINCRSSQSVLYSSSNRNYLAWYQQNPGQPPKLLIYWASTRESGVPDRFSGSGSGTDFTLTISSLQAEDVAVYYCQQYYSTPRTFGQGTKVEIKRTVAAPQIVLIQSPAIMSASPGEKVTMTCSASSSVSYMYWYQQKPGSSPRLLIYDTSNLASGVPVRFSGSGSGTSYSLTISRMEAEDAATYYCQQWSGYPYTFGGGTKLEIKRTVAAPSVFIFPPSDEQLKSGTASVVCLLNNFYPREAKVQWKVDNALQSGNSQESVTEQDSKDSTYSLSSTLTLSKADYEKHKVYACEVTHQGLSSPVTKSFNRGEC
notes: also called DVD1855H; DVD1855L
Kd (ErbB3): 3.7 nM | koff (ErbB3): 0.00038 s⁻¹ | kon (ErbB3): 100000 M⁻¹ s⁻¹

B5: AB016 (antibody, V domains shown)
VH: EVQLVESGGGLVQPGGSLRLSCAASGFSFSSEPISWVRQAPGKGLEWVSSITGKNGYTYYADSVKGRFTISADTSKNTAYLQMNSLRAEDTAVYYCARWGKKVYGMDVWGQGTLVTVSS
VL: DIQMTQSPSSLSASVGDRVTITCRASQSISSYLAWYQQKPGKAPKLLIYGASSRASGVPSRFSGSGSGTDFTLTISSLQPEDFATYYCQQYMSVPITFGQGTKVEIKR
notes: Parent antibody; also called AB016VH; AB016VL
N-Terminal VD GEO MEAN (FACS geometric mean) (NRP1 on the cell surface): 15.4

B6: DVD1867 (bispecific antibody, human IgG1, kappa)
heavy: not shown
light: DIQMTQSPSSLSASVGDRVTITCRASQDVSTAVAWYQQKPGKAPKLLIYSASFLYSGVPSRFSGSGSGTDFTLTISSLQPEDFATTYYCQQSYTGTVTFGQGTKVEIKRTVAAPQIVLIQSPAIMSASPGEKVTMTCSASSSVSYMYWYQQKPGSSPRLLIYDTSNLASGVPVRFSGSGSGTSYSLTISRMEAEDAATYYCQQWSGYPYTFGGGTKLEIKRTVAAPSVFIFPPSDEQLKSGTASVVCLLNNFYPREAKVQWKVDNALQSGNSQESVTEQDSKDSTYSLSSTLTLSKADYEKHKVYACEVTHQGLSSPVTKSFNRGEC
notes: Outer domain anti-DLL4 (AB015), inner domain anti-IL-6 (AB040); also called DVD1867H; DVD1867L
Kd (Recombinant Human DLL4): 0.49 nM | koff (Recombinant Human DLL4): 0.00022 s⁻¹ | kon (Recombinant Human DLL4): 460000 M⁻¹ s⁻¹

B7: DVD1871 (bispecific antibody, human IgG1, kappa)
heavy: not shown
light: QAVLTQPSSLSAPPGASASLTCTLRSGFNVDSYRISWYQQKPGSPPQYLLRYKSDSDKQQGSGVPSRFSGSKDASANAGILLISGLQSEDEADYYCMIWHSSAWVFGGGTKLTVLRTVAAPQIVLIQSPAIMSASPGEKVTMTCSASSSVSYMYWYQQKPGSSPRLLIYDTSNLASGVPVRFSGSGSGTSYSLTISRMEAEDAATYYCQQWSGYPYTFGGGTKLEIKRTVAAPSVFIFPPSDEQLKSGTASVVCLLNNFYPREAKVQWKVDNALQSGNSQESVTEQDSKDSTYSLSSTLTLSKADYEKHKVYACEVTHQGLSSPVTKSFNRGEC
notes: also called DVD1871H; DVD1871L
Kd [2]: > 1 nM | koff [2]: > 0.01 s⁻¹ | kon [2]: > 1e+07 M⁻¹ s⁻¹

B8: DVD1869 (bispecific antibody, human IgG1, kappa)
heavy: not shown
light: DIVLTQSPDSLAVSLGERVTMNCKSSQSLLNSGMRKSFLAWYQQKPGQSPKLLIYWASTRESGVPDRFTGSGSGTDFTLTISSVQAEDVAVYYCKQSYHLFTFGSGTKLEIKRTVAAPQIVLIQSPAIMSASPGEKVTMTCSASSSVSYMYWYQQKPGSSPRLLIYDTSNLASGVPVRFSGSGSGTSYSLTISRMEAEDAATYYCQQWSGYPYTFGGGTKLEIKRTVAAPSVFIFPPSDEQLKSGTASVVCLLNNFYPREAKVQWKVDNALQSGNSQESVTEQDSKDSTYSLSSTLTLSKADYEKHKVYACEVTHQGLSSPVTKSFNRGEC
notes: Outer domain anti-PlGF (AB047), inner domain anti-IL-6 (AB040); also called DVD1869H; DVD1869L
Kd (Recombinant Human PIGF): 0.02 nM | koff (Recombinant Human PIGF): 0.00011 s⁻¹ | kon (Recombinant Human PIGF): 5.6e+06 M⁻¹ s⁻¹

B9: DVD1889 (bispecific antibody, human IgG1, kappa)
heavy: not shown
light: DIQMTQSPSSLSASVGDRVTITCRASQSISSYLAWYQQKPGKAPKLLIYGASSRASGVPSRFSGSGSGTDFTLTISSLQPEDFATYYCQQYMSVPITFGQGTKVEIKRTVAAPQIVLIQSPAIMSASPGEKVTMTCSASSSVSYMYWYQQKPGSSPRLLIYDTSNLASGVPVRFSGSGSGTSYSLTISRMEAEDAATYYCQQWSGYPYTFGGGTKLEIKRTVAAPSVFIFPPSDEQLKSGTASVVCLLNNFYPREAKVQWKVDNALQSGNSQESVTEQDSKDSTYSLSSTLTLSKADYEKHKVYACEVTHQGLSSPVTKSFNRGEC
notes: also called DVD1889H; DVD1889L
Kd [3]: 0.5 nM | koff [3]: 0.00019 s⁻¹ | kon [3]: 380000 M⁻¹ s⁻¹ | N-Terminal VD GEO MEAN (FACS geometric mean) (NRP1 on the cell surface): 15

B10: DVD1899 (bispecific antibody, human IgG1, kappa)
heavy: not shown
light: QSALTQPASVSGSPGQSITISCTGTSSDVGSYNVVSWYQQHPGKAPKLIIYEVSQRPSGVSNRFSGSKSGNTASLTISGLQTEDEADYYCCSYAGSSIFVIFGGGTKVTVLGQPKAAPQIVLIQSPAIMSASPGEKVTMTCSASSSVSYMYWYQQKPGSSPRLLIYDTSNLASGVPVRFSGSGSGTSYSLTISRMEAEDAATYYCQQWSGYPYTFGGGTKLEIKRTVAAPSVFIFPPSDEQLKSGTASVVCLLNNFYPREAKVQWKVDNALQSGNSQESVTEQDSKDSTYSLSSTLTLSKADYEKHKVYACEVTHQGLSSPVTKSFNRGEC
notes: also called DVD1899H; DVD1899L
Kd (ErbB3): 6.7 nM | koff (ErbB3): 0.00026 s⁻¹ | kon (ErbB3): 38000 M⁻¹ s⁻¹

B11: DVD1857 (bispecific antibody, human IgG1, kappa)
heavy: not shown
light: DIQMTQSPSSLSASVGDRVTITCQASQDITNYLNWYQQKPGKAPKLLIYDASNLETGVPSRFSGSGSGTDFTFTISSLQPEDIATYNCQQCENFPITFGQGTRLEIKRTVAAPQIVLIQSPAIMSASPGEKVTMTCSASSSVSYMYWYQQKPGSSPRLLIYDTSNLASGVPVRFSGSGSGTSYSLTISRMEAEDAATYYCQQWSGYPYTFGGGTKLEIKRTVAAPSVFIFPPSDEQLKSGTASVVCLLNNFYPREAKVQWKVDNALQSGNSQESVTEQDSKDSTYSLSSTLTLSKADYEKHKVYACEVTHQGLSSPVTKSFNRGEC
notes: also called DVD1857H; DVD1857L
Kd (ErbB3): 0.12 nM | koff (ErbB3): 0.00015 s⁻¹ | kon (ErbB3): 1.2e+06 M⁻¹ s⁻¹

B12: DVD1907 (bispecific antibody, human IgG1, kappa)
heavy: not shown
light: DIQMTQSPSSMSVSVGDRVTITCHSSQDINSNIGWLQQKPGKSFKGLIYHGTNLDDGVPSRFSGSGSGTDYTLTISSLQPEDFATYYCVQYAQFPWTFGGGTKLEIKRTVAAPQIVLIQSPAIMSASPGEKVTMTCSASSSVSYMYWYQQKPGSSPRLLIYDTSNLASGVPVRFSGSGSGTSYSLTISRMEAEDAATYYCQQWSGYPYTFGGGTKLEIKRTVAAPSVFIFPPSDEQLKSGTASVVCLLNNFYPREAKVQWKVDNALQSGNSQESVTEQDSKDSTYSLSSTLTLSKADYEKHKVYACEVTHQGLSSPVTKSFNRGEC
notes: also called DVD1907H; DVD1907L
N-Terminal VD GEO MEAN (FACS geometric mean) (EGFR on the cell surface): 23.5

B13: DVD1901 (bispecific antibody, human IgG1, kappa)
heavy: not shown
light: DIQMTQSPSSLSASVGDRVTITCRASQDVSTAVAWYQQKPGKAPKLLIYSASFLYSGVPSRFSGSGSGTDFTLTISSLQPEDFATYYCQQSYTTPPTFGQGTKVEIKRTVAAPQIVLIQSPAIMSASPGEKVTMTCSASSSVSYMYWYQQKPGSSPRLLIYDTSNLASGVPVRFSGSGSGTSYSLTISRMEAEDAATYYCQQWSGYPYTFGGGTKLEIKRTVAAPSVFIFPPSDEQLKSGTASVVCLLNNFYPREAKVQWKVDNALQSGNSQESVTEQDSKDSTYSLSSTLTLSKADYEKHKVYACEVTHQGLSSPVTKSFNRGEC
notes: also called DVD1901H; DVD1901L
Kd [1]: 0.16 nM | koff [1]: 9.3e-05 s⁻¹ | kon [1]: 580000 M⁻¹ s⁻¹
